To fix the notation:
B1: IKZF1 (parent)
chain: RDPFECNMCGYHSQDRYEFSSHIT
B2: ZNF207 (parent)
chain: YQGGPPRPPMGMRPPVMSQGGRY
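Further: lentivirally expressed fusions sorted by FACS into six bins by GFP to DsRed ratio, PSI derived from sequencing read proportions per bin multiplied by bin number.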

The variants in the first data set derive from B1. Kind of data set: protein stability index of a GFP-peptide fusion (GPS, HEK-293T) (PSI 1-6); higher = more stable. As to conditions: c terminus: a fixed tail appended.
Turning to RDPFECNMCGYSSQDRYEFSSHIT [H12S], the protein stability index came to 2.06.
Same read-out and setting: for RDPFECNMCGYASQDRYEFSSHIT [H12A] the value was 2.6.
Same read-out and setting: for RDPFECNMCGYMSQDRYEFSSHIT [H12M] the value was 1.5; for RDPFECNMCGYGSQDRYEFSSHIT [H12G], 2.25; for RDPFECNMCGYDSQDRYEFSSHIT [H12D], 2.69.
In the case of GDPFECNMCGYHSQDRYEFSSHIT [R1G], the protein stability index is 2.49.
Regarding ADPFECNMCGYHSQDRYEFSSHIT [R1A], the protein stability index turned out to be 2.63.
Same read-out and setting: the result for WDPFECNMCGYHSQDRYEFSSHIT [R1W] reads 2.2; that for SDPFECNMCGYHSQDRYEFSSHIT [R1S], 2.1; that for KDPFECNMCGYHSQDRYEFSSHIT [R1K], 2.15.
Regarding LDPFECNMCGYHSQDRYEFSSHIT [R1L], the protein stability index is 2.31.
Take MDPFECNMCGYHSQDRYEFSSHIT [R1M]: the protein stability index worked out at 2.26.
Same read-out and setting: the result for RHPFECNMCGYHSQDRYEFSSHIT [D2H] reads 1.75.
The same measure, in the same setting: the result for RTPFECNMCGYHSQDRYEFSSHIT [D2T] reads 1.82; that for RIPFECNMCGYHSQDRYEFSSHIT [D2I], 2.2.
Still for that read-out and setting: the result for RVPFECNMCGYHSQDRYEFSSHIT [D2V] reads 2.21; that for RWPFECNMCGYHSQDRYEFSSHIT [D2W], 1.92; that for RDPFECNMCGYHSQDRYEFSKHIT [S21K], 2.28.
Regarding RDPFECNMCGYHSQDRYEFSNHIT [S21N], the protein stability index was found to be 2.3.
The same measure, in the same setting: for RDPFECNMCGYHSQDRYEFSQHIT [S21Q] the value was 1.83; for RDPFECNMCGYHSQDRYMFSSHIT [E18M], 1.54; for RDPFECNMCGYHSQDRYIFSSHIT [E18I], 2.18.
As to RDPFECNMCGYHSQDRYNFSSHIT [E18N], the protein stability index came to 1.54.
On the same count and under the same terms, the result for RDPFECNMCGYHSQDRYKFSSHIT [E18K] reads 1.74; that for RDPFECNMCGYHSQDRYRFSSHIT [E18R], 1.99; that for RDPFEGNMCGYHSQDRYEFSSHIT [C6G], 2.3.
On the same count and under the same terms, for RDPFETNMCGYHSQDRYEFSSHIT [C6T] the value was 3.21.

In a further data set the parent is B2. The description is as above. As to conditions: c terminus: native.
For the variant YQGGLPRPPMGMRPPVMSQGGRY [P5L], the protein stability index was determined as 2.34.
Take YQGGCPRPPMGMRPPVMSQGGRY [P5C]: the protein stability index was determined as 1.61.
On the same count and under the same terms, for YQGGQPRPPMGMRPPVMSQGGRY [P5Q] the value was 2.62; for YQGGMPRPPMGMRPPVMSQGGRY [P5M], 1.22.
On the same count and under the same terms, the result for YQGGPPRPPMGMRPPVMSQGGFY [R22F] reads 1.21; that for YQGGPPRPPMGMRPPVMSQGGMY [R22M], 1.69; that for YQGGPPRPPMGMRPPVMSQGGTY [R22T], 1.89.
Same read-out and setting: the result for YQGGPPRPPMGMRPPVMSQGGKY [R22K] reads 1.99; that for YQGGPPRPPMGMRPPVMSQGGDY [R22D], 1.89; that for YQGGPPRPPMYMRPPVMSQGGRY [G11Y], 2.14.
As to YQGGPPRPPMHMRPPVMSQGGRY [G11H], the protein stability index was determined as 1.43.
The same measure, in the same setting: the result for YQGGPPRPPMNMRPPVMSQGGRY [G11N] reads 1.97; that for YQGGPPRPPMGMRAPVMSQGGRY [P14A], 1.47.
In the case of YQGGPPRPPMGMRPPVWSQGGRY [M17W], the protein stability index is 1.67.
On the same count and under the same terms, the result for YQGGPPRPPMGMRPPVFSQGGRY [M17F] reads 2.17.
The same measure, in the same setting: for YQGGPPRPPMGMRPPVLSQGGRY [M17L] the value was 1.52; for YQGNPPRPPMGMRPPVMSQGGRY [G4N], 3.23.
Same read-out and setting: the result for YQGRPPRPPMGMRPPVMSQGGRY [G4R] reads 2.51; that for YQGGPPRPPMGMRPPVMSQGGRM [Y23M], 2.44; that for YQGGPPRPPMGMRPPVMSQGGRV [Y23V], 1.5.
Take YFGGPPRPPMGMRPPVMSQGGRY [Q2F]: the protein stability index amounted to 1.65.
Still for that read-out and setting: for YEGGPPRPPMGMRPPVMSQGGRY [Q2E] the value was 2.4; for YWGGPPRPPMGMRPPVMSQGGRY [Q2W], 2.1.
The same measure, in the same setting: for YLGGPPRPPMGMRPPVMSQGGRY [Q2L] the value was 2.34; for YGGGPPRPPMGMRPPVMSQGGRY [Q2G], 3.02; for YQGGPPRPPMGMRPQVMSQGGRY [P15Q], 2.65.
As for YQGGPPRPPMGMRPRVMSQGGRY [P15R], the protein stability index is 2.07.
The same measure, in the same setting: for YQGGPPRPPMGMRPSVMSQGGRY [P15S] the value was 2.23; for YQGGPPRPPMGMRPEVMSQGGRY [P15E], 2.2; for YQGGPPRPPMGMRPPWMSQGGRY [V16W], 1.75.
On to YQGGPMRPPMGMRPPVMSQGGRY [P6M], for which the protein stability index was 2.19.
Still for that read-out and setting: the result for YQGGPIRPPMGMRPPVMSQGGRY [P6I] reads 2.49.
Still for that read-out and setting: the result for YQGGPGRPPMGMRPPVMSQGGRY [P6G] reads 2.07; that for YQGGPQRPPMGMRPPVMSQGGRY [P6Q], 2.2; that for YQGGPDRPPMGMRPPVMSQGGRY [P6D], 2.73.
The same measure, in the same setting: the result for YQGGPSRPPMGMRPPVMSQGGRY [P6S] reads 2.45; that for NQGGPPRPPMGMRPPVMSQGGRY [Y1N], 3.31.
With WQGGPPRPPMGMRPPVMSQGGRY [Y1W], the protein stability index came to 2.49.
Still for that read-out and setting: the result for YQGGPPRPPMGMRPPVMSQGTRY [G21T] reads 2.74.
Still for that read-out and setting: the result for YQGGPPRPPMGMRPPVMSQGCRY [G21C] reads 2.24.
On the same count and under the same terms, the result for YQGGPPRPPMGMRPPVMSQGVRY [G21V] reads 2.3.
With YQGGPPRPPMGMRPPVMSQGFRY [G21F], the protein stability index came out at 1.72.
The same measure, in the same setting: for YQGGPPRPPMGGRPPVMSQGGRY [M12G] the value was 2.05.
The same measure, in the same setting: the result for YQGGPPMPPMGMRPPVMSQGGRY [R7M] reads 1.51.
Still for that read-out and setting: for YQGGPPLPPMGMRPPVMSQGGRY [R7L] the value was 1.7; for YQGGPPIPPMGMRPPVMSQGGRY [R7I], 1.92; for YQGGPPCPPMGMRPPVMSQGGRY [R7C], 1.23.
YQGGPPRPPMGMFPPVMSQGGRY [R13F]: the protein stability index is 2.23.
On to YQGGPPRPPMGMSPPVMSQGGRY [R13S], for which the protein stability index turned out to be 1.96.
On the same count and under the same terms, the result for YQGGPPRKPMGMRPPVMSQGGRY [P8K] reads 2.35; that for YQGGPPRVPMGMRPPVMSQGGRY [P8V], 1.57; that for YQGGPPRHPMGMRPPVMSQGGRY [P8H], 2.98.
Still for that read-out and setting: the result for YQGGPPRPPMGMRPPVMKQGGRY [S18K] reads 1.81.
The same measure, in the same setting: the result for YQGGPPRPPMGMRPPVMPQGGRY [S18P] reads 2.08; that for YQGGPPRPPMGMRPPVMLQGGRY [S18L], 2.28.
In the case of YQGGPPRPPMGMRPPVMSQWGRY [G20W], the protein stability index is 2.46.
YQGGPPRPPMGMRPPVMSQEGRY [G20E]: the protein stability index was 2.23.
Same read-out and setting: for YQGGPPRPPMGMRPPVMSQYGRY [G20Y] the value was 1.68.
Still for that read-out and setting: for YQLGPPRPPMGMRPPVMSQGGRY [G3L] the value was 2.31.
The same measure, in the same setting: the result for YQWGPPRPPMGMRPPVMSQGGRY [G3W] reads 1.39; that for YQMGPPRPPMGMRPPVMSQGGRY [G3M], 1.59.
On to YQYGPPRPPMGMRPPVMSQGGRY [G3Y], for which the protein stability index was 2.42.
Same read-out and setting: for YQHGPPRPPMGMRPPVMSQGGRY [G3H] the value was 1.5; for YQGGPPRPPQGMRPPVMSQGGRY [M10Q], 2.14.
On the same count and under the same terms, the result for YQGGPPRPPIGMRPPVMSQGGRY [M10I] reads 3.45.
Still for that read-out and setting: the result for YQGGPPRPPHGMRPPVMSQGGRY [M10H] reads 2.34; that for YQGGPPRPPNGMRPPVMSQGGRY [M10N], 1.82.
For YQGGPPRPRMGMRPPVMSQGGRY [P9R], the protein stability index was found to be 1.87.

Source of the values: the supplement of paper PMC10567573.
